Values belong to the binder of their own block, whether it stands above or below them.
Biological target: T1, 人肌红蛋白(Human Myoglobin) (human, UniProt P02144 2-154)
T1 construct: mature; Native protein, bought; also called 人肌红蛋白标准抗原; ABCam ab77876
T1 sequence (looked up): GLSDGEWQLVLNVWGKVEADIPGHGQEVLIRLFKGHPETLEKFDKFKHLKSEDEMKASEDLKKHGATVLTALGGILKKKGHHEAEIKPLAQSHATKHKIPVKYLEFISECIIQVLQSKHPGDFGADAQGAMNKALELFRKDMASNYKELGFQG
Assay: indirect ELISA, human myoglobin coated at 300 ng/ml, purified antibody in two-fold dilutions from 1:10 000

- 效价 (titer, antibody dilution at OD450 about 1.0) (dilution fold): > 1e+06
B1: 鼠源抗人肌红蛋白单克隆抗体3M4 (antibody, V domains shown)
VH: VKLQESGGGLVQPGGSMKLSCVASGFNFSSYWMSWVRQSPEKGLEWVAEIRLKSDNYATHYAESVKGKFTISRDDSKSSLYLQMNNLRTEDTGIYFCADHGLTGHWGQGTTVTVSS
VL: LTQSPAIMSASPGEKVTLTCSASSSVSSSYLYWYQQKPGSSPKIWIYSTSNLAFGVPDRFSGSGSGTSYSLTISTMEAEDAASYFCHQWSSYPFTFGAGTKLE

- 效价 (titer, antibody dilution at OD450 about 1.0): ≥ 1e+06 dilution fold
B2: 鼠源抗人肌红蛋白单克隆抗体5M7 (antibody)
chain 1: VQLQESGAELARPGASVKLSCKASGYTFTIYWMQWVKQRPGQGLEWIGSIYPGDGDTRYNQKFKGKATFTADKSSSTAYMQLISLASEDSAVYYCATGLYYGYDEGHWYFDVWGQGTTV
chain 2: DIVMSQSPASLAVSLGQRATISYRASKSVSTSGYSYMHWNQQKPGQPPRLLIYLVSNLESGVPARFSGSGSGTDFTLNIHPVEEEDAATYYCQHIR
